Data on seven molecules can be found in patent US5969094A, “Anti-paramyxovirus screening method and vaccine” (Emory University, priority 1996, dated 1999).

Series [1] relates to PI3 virus. The class given is cell-based, human parainfluenza type 3 virus. Conditions: for syncytium formation / inhibition of cell fusion in PI3 infected HeLa-T4 cells (in words): incubated with peptide, concentration not given; for inhibition of PI3 virus-induced cell fusion: 24 h post infection.
The next series has as its target PI3F + PI3HN (Human parainfluenza 3 virus, UniProt P06828).
The subject of series [2] is PI3 virus. Kind of series: Inhibition of plaque formation on Vero cells (viral entry), PI3. Format: cell-based, human parainfluenza type 3 virus. The settings on record: 100 μM peptide with virus 1 h at 37° C.; 10^5 dilution of the PI3 virus stock; overlay without peptide. As to the method:
Inhibition of plaque formation. A series of 2-fold dilutions of F peptides together with appropriately diluted PI2 or PI3 virus were added to monolayers of Vero cells. After 1 h incubation at 37° C., the inoculum was removed and overlaid with 2% white agar mixed at 1:1 ratio with 2XDMEM containing 2% FBS. Three days after overlying, red agar mixed at a 1:1 ratio with 2XDMEM containing 2% FBS was overlaid to stain the cells. Plaque numbers were counted one day after neutral red staining and recorded. The Reed-Muench method of estimating 50% endpoint [Welkos, S. et al., (1994) Methods in Enzymology. 235:29-39] was used to calculate the F peptide 50% effective concentration (EC50) value.
F peptides inhibit viral spread. To determine whether the F peptide interferes with the viral entry process, a plaque assay was performed by inoculating cells with virus and peptide together at 37° C. for 1 h, and then overlaying with agar without the addition of peptide. At 10^4 dilution of the PI2 virus stock, 80 μM of the 2F1B34 peptide (SEQ ID NO:21) caused an 80% reduction in number of plaques. Similarly, at 10^5 dilution of the PI3 virus stock, 100 μM of the 3F1B35 peptide (SEQ ID NO:23) caused a 70% reduction in number of plaques. Furthermore, the reduction in the number of viral plaques was correlated with increasing concentration of peptide incubated with the virus. […]

Series [3] has as its system PI2 virus. Format: cell-based, parainfluenza virus type 2.
Another series addresses T1, PI2F + PI2HN (Human parainfluenza 2 virus, UniProt P25467).
T1 construct: expressed in transfected cells; host or cells: HeLa-T4 cells infected with vTF7.3
T1 sequence (P25467 107-551 limits assumed): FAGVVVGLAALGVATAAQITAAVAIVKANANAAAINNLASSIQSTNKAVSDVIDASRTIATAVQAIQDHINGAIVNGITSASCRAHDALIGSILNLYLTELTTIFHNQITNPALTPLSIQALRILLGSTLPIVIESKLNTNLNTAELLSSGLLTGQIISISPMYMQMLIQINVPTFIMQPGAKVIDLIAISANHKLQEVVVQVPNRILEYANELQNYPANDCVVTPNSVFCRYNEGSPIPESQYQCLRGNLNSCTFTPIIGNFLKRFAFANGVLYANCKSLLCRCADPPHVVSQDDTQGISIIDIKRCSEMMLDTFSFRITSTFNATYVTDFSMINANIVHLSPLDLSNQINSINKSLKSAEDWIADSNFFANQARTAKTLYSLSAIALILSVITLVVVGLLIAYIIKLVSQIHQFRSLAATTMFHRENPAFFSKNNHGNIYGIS
T1 sequence (P25467 24-106 partner limits assumed): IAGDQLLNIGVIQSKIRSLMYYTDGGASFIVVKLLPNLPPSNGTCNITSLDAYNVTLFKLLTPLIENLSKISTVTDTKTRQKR
Format: cell-based, parainfluenza virus type 2.

For series [4], the system named is PI2 virus. Kind of series: Inhibition of virus production (released virus titer) in HeLa-T4 cells, PI2. The class given is cell-based, parainfluenza virus type 2. Conditions: compared with 2F1B34.
For series [5], the target named is PI3 F plus PI3 HN (viral glycoproteins of PI3 virus; HN:F) (parainfluenza type 3 (PI3) virus, UniProt P06828). Put plainly: cell-based or functional assay.
Series [6] concerns the target T2, SN-F, fusion glycoprotein of Sendai virus (Sendai virus (SN), UniProt P04855).
T2 sequence: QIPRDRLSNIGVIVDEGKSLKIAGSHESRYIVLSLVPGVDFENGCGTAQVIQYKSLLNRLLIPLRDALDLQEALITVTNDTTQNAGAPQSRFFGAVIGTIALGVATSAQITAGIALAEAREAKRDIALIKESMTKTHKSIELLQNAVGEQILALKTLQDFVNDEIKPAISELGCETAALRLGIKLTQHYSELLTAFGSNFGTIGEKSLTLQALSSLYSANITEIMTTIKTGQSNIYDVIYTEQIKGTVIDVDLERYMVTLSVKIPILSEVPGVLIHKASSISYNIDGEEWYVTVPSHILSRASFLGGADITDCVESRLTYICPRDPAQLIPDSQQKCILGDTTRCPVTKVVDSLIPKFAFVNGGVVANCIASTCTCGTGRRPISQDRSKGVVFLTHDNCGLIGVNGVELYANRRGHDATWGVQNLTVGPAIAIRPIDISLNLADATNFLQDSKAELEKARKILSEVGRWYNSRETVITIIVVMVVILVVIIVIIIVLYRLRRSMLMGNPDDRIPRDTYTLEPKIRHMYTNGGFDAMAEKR
Kind of series: cell-based or functional assay.

The subject of the next series is HeLa-T4 cells. The class given is cell-based.
A further series concerns the target T3, SN-F (Sendai virus, UniProt P04855).
T3 sequence (P04855 117-565 limits assumed): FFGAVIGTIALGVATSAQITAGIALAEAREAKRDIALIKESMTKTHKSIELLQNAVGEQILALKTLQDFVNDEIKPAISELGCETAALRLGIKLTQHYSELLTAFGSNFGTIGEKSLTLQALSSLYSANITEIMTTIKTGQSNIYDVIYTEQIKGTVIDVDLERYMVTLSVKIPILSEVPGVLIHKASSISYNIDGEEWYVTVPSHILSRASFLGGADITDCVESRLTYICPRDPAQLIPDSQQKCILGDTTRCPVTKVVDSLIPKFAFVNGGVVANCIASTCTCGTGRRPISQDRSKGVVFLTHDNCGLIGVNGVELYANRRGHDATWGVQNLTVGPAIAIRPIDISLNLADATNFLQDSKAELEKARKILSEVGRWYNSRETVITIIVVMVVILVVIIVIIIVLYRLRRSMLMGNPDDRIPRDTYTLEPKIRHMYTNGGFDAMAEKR
T3 sequence (P04855 26-116 partner limits assumed): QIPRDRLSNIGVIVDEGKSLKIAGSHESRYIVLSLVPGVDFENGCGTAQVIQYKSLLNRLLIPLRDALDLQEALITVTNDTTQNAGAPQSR
Format: cell-based.

The test system of another series is guinea pig erythrocytes. The class given is cell-based.
Series [7] concerns the target PI2 F plus PI2 HN (viral glycoproteins of PI2 virus; HN:F) (parainfluenza type 2 (PI2) virus).
For series [8] the target is unchanged. This is another data set of the same source.
Series [9] has the same target. This is another data set of the same source.

Read-outs that look alike come from different tables or passages of the source.

As for “3F1B24: 24 a.a. PI3F peptide corresponding to the heptad repeat B only (ELNKAKSDLEESKEWIRRSNQKLD)”, in the series with PI3 virus [1], the “inhibition of PI3 cell fusion at high peptide concentration” value is “could only partially inhibit cell fusion” and the “syncytium formation / inhibition of cell fusion in PI3 infected HeLa-T4 cells (in words)” value is listed as “dramatically decreased”. Further, the “inhibition of PI3 virus-induced cell fusion” value in the series on PI3 virus [1] (peptide 200 μM or more) was “partially inhibited”. Further, the “inhibition of cell fusion by vaccinia-expressed PI3 F and HN (in words)” value with PI3F + PI3HN was “only partially inhibited cell fusion”.

As for “3F1B35: 35 a.a. PI3F peptide from the beginning of the transmembrane domain to include the entire heptad repeat B (ELNKAKSDLEESKEWIRRSNQKLDSIGNWHQSSTT)”, in the series on PI3 virus [1], the “syncytium formation / inhibition of cell fusion in PI3 infected HeLa-T4 cells (in words)” value is “no syncytia were seen”. The “inhibition of PI3 virus-induced cell fusion” value in the series on PI3 virus [1] (peptide 100 μM) is given as “completely inhibited”. The “reduction in number of plaques, PI3” value with PI3 virus [2] is 70%. Further, in the series with PI3F + PI3HN, the “inhibition of fusion by PI3 F plus PI3 HN” value is listed as “can inhibit”.

Turning to “2F1B21: 21 a.a. PI2F peptide from the beginning of the transmembrane domain to a predicted glycosylation site in the heptad repeat B region (KSAEDWIADSNFFANQARTAK)”, the “inhibition of PI2 cell fusion at high peptide concentration” value in the series on PI2 virus [3] was “could only partially inhibit cell fusion”. In addition, the “syncytium formation / inhibition of cell fusion in PI2 infected HeLa-T4 cells (in words)” value in the series with PI2 virus [3] (incubated with peptide, concentration not given) is “dramatically decreased”. Besides, the “inhibition of PI2 virus-induced cell fusion” value in the series on PI2 virus [3] (peptide 200 μM or more, 24 h post infection, m.o.i. 0.1) is reported as “cell fusion was reduced remarkably”. For the same molecule, the “inhibition of cell fusion by vaccinia-expressed PI2 F and HN (in words)” value with PI2F + PI2HN was “only partially inhibited cell fusion”. Further, the “effect on multiple cycle growth, PI2 (in words)” value in the series on PI2 virus [4] is on record as “not as dramatic as”.

B1: peptide 3F1B35 (peptide)
peptide: Ac-ELNKAKSDLEESKEWIRRSNQKLDSIGNWHQSSTT-NH2
Consider B1, for which, in [5], the “50% effective concentration (EC50) of inhibition of virus infection efficiency, plaque assay, Reed-Muench method” value was determined as 81.6 µM and the “viral titer in the culture supernatant post infection” value is 10 fold reduction.

B2: SN(59-140)d chimeric HN protein (other)
chain: MEYWKHTNHGKDAGNELETSMATHGNKITNKITYILWTIILVLLSIVFIIVLISARQGYSMKEYSMTVEALNMSSREVKESLTSLIRQEVIARAVNIQSSVQTGIPVLLNKNSRDVIQMIDKSCSRQELTQHCESRITHDVGIKPLNPDDFWRCTSGLPSLMKTPKIRLMPGPGLLAMPTTVDGCVRTPSLVINDLIYAYTSNLITRGCQDIGKSYQVLQIGIITVNSDLVPDLNPRISHTFNINDNRKSCSLALLNTDVYQLCSTPKVDERSDYASSGIEDIVLDIVNHDGSISTTRFKNNNISFDQPYAALYPSVGPGIYYKGKIIFLGYGGLEHPINENAICNTTGCPGKTQRDCNQASHSPWFSDRRMVNSIIVVDKGLNSIPKLKVWTISMRQNYWGSEGRLLLLGNKIYIYTRSTSWHSKLQLGIIDITDYSDIRIKWTWHNVLSRPGNNECPWGHSCPDGCITGVYTDAYPLNPTGSIVSSVILDSQKSRVNPVITYSTSTERVNELAIRNKTLSAGYTTTSCITHYNKGYCFHIVEINHKSLDTFQPMLFKTEIPKSCS
Turning to B2, the “Fusion activity (%), β-galactosidase production in the fusion dependent reporter gene activation assay” value in series [6] is 31.3 % of SN-HN wt with SN-F. Also, the “Cell surface expression (%)” value with HeLa-T4 cells is 61.6%. Moreover, in the series with SN-F, the “Relative fusion promoting activity b/a” value was determined as 0.51. In addition, in the series on guinea pig erythrocytes, the “HAD activity as percentage of wild type SN-HN hemadsorption” value was “comparable or higher HAD activity than that of SN-HN” and the “hemadsorption observed under the microscope” value is reported as “high levels of hemadsorption”.

B3: SN(80-140)d chimeric HN protein (other)
chain: MEYWKHTNHGKDAGNELETSMATHGNKITNKITYILWTIILVLLSIVFIIVLINSIKSEKAHESLLQDVNNEFMSREVKESLTSLIRQEVIARAVNIQSSVQTGIPVLLNKNSRDVIQMIDKSCSRQELTQHCESRITHDVGIKPLNPDDFWRCTSGLPSLMKTPKIRLMPGPGLLAMPTTVDGCVRTPSLVINDLIYAYTSNLITRGCQDIGKSYQVLQIGIITVNSDLVPDLNPRISHTFNINDNRKSCSLALLNTDVYQLCSTPKVDERSDYASSGIEDIVLDIVNHDGSISTTRFKNNNISFDQPYAALYPSVGPGIYYKGKIIFLGYGGLEHPINENAICNTTGCPGKTQRDCNQASHSPWFSDRRMVNSIIVVDKGLNSIPKLKVWTISMRQNYWGSEGRLLLLGNKIYIYTRSTSWHSKLQLGIIDITDYSDIRIKWTWHNVLSRPGNNECPWGHSCPDGCITGVYTDAYPLNPTGSIVSSVILDSQKSRVNPVITYSTSTERVNELAIRNKTLSAGYTTTSCITHYNKGYCFHIVEINHKSLDTFQPMLFKTEIPKSCS
Turning to B3, the “Fusion activity (%), β-galactosidase production in the fusion dependent reporter gene activation assay” value in series [6] was 6.72 % of SN-HN wt with SN-F. Moreover, the “Cell surface expression (%)” value in the series with HeLa-T4 cells is 72.0%. In the series with SN-F, the “Relative fusion promoting activity b/a” value was determined as 0.09 and the “fusion promoting activity, percentage of wild type SN-HN” value amounted to 6.7%. Further, in the series with guinea pig erythrocytes, the “HAD activity as percentage of wild type SN-HN hemadsorption” value is given as 30.5% and the “hemadsorption observed under the microscope” value is recorded as “lower activities”.

B4: peptide 2F1B34 (peptide)
peptide: Ac-DLSNQINSINKSLKSAEDWIADSNFFANQARTAK-NH2
In the case of B4, the 50% effective concentration (EC50) of inhibition of virus infection efficiency, plaque assay, Reed-Muench method in [7] came out at 53.8 µM. Also, the viral titer in the culture supernatant 48 h post infection (plaque assay) (fold decrease) in [8] turned out to be 15. The plaque size (peptide in the agar overlay after virus absorption, Vero cells) in series [9] was determined as 1.5 mm.
